Assay results published in the nanobody polyreactivity screen of Harvey et al. (2022).

Assay: yeast display, Sf9 membrane polyspecificity reagent, FACS + sequencing; frameworks hold sequencing errors
Summary of the method: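 Synthetic nanobody libraries on Saccharomyces cerevisiae BJ5465 were galactose-induced for 36–48 hours, stained 1 hour at 4 °C with 10% biotinylated, detergent-solubilized Sf9 membrane reagent and enriched on streptavidin microbeads. FACS then separated cells into low and high (top ~1%) gates by anti-HA (expression) and streptavidin (reagent binding) fluorescence. Genes were colony-PCR amplified, MiSeq 2 × 250 sequenced and CDR-length filtered. A clone's polyreactivity label is that of its gate of origin.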

Q: Which “polyreactivity (PSR sort gate)” value does the source give for “QVQLVESGGGLVQAGGSLRLSCAASGRIFKSYAMGWYRQAPGKERELVAAISSGDDTYYADSVKGRFTISRDNAKNTVYLQMNSLKPEDTAVYYCAADYWGWLYLYGDYLVDYWGQGTQVTVSS” here?
A: low polyreactivity

Q: For “QVQLVESGGGLVQAGGSLRLSCAASRSTFEIYAMGWYRPAPGKERELFAAISSGGSTNYADSVKGRFTISRDNAKNTVYLQMKSLITEDTAVYYCVYAIQFYYWGQGTQVTVSS”, which “polyreactivity (PSR sort gate)” value is on record?
A: low polyreactivity

Q: For “QVQLVESGGGLVQAGGSLRLSCAASGSTFRWNAMGWYRQAPGKERELVATITWGGGSTYYADSVKGRFTISRDNAKNTVYLQMNSLKPEDTAVYYCARRKRARYSYYQYNYWGQGTQVTVSS”, which “polyreactivity (PSR sort gate)” value is on record?
A: high polyreactivity

Q: With “QVQLVESGGGLVQAGGSLRLSCAASGSTFPLNVMGWYRQAPGKERELVAAISSSGGRTYYADSVKGRFTISRDNAKNTVYLQMNSLKPEDTAVYYCNARWRKNLSGRVFRYDYWGQGTQVTVSS” as the sequence, how does the “polyreactivity (PSR sort gate)” value read?
A: high polyreactivity

Q: Which “polyreactivity (PSR sort gate)” value does the source give for “QVQLVESGGGLVQAGGSLRLSCAASGFTFRYYAMGWYRPAPGKERELVAAISSGGRTNYADSVKGRFTISRDNAKNTVYLQMNSLKPEDTAVYYCATASRRGDPRLRFYYWGQGTQVTVSS” here?
A: high polyreactivity

Q: For “QVQLVESGGGLVQAGGSLRLSCAASGRIFSLYAMGWYRQAPGNERELVAAISKRGGSTYYADSVKGRFTISRDNAKNTVYLHMNSLKPEDTAVYYCATQLPFRKPWHDYWGQGTQVTVSS”, which “polyreactivity (PSR sort gate)” value is on record?
A: high polyreactivity

Q: With “QVQLVESGGGLVQAGGSLRLSSAASGFIFQSYAMGWYRQAPGKERELVAAISASGGRTYYADSVKGRFTISRDNAKNTVYLQMNSLKPEDTAVYYCAAYRSYWAVYPRMYYWGQGTQVTVSS” as the sequence, how does the “polyreactivity (PSR sort gate)” value read?
A: high polyreactivity

Q: Which “polyreactivity (PSR sort gate)” value does the source give for “QVQLVESGGGLVQAGGSLRLSCAASGSTFPVYAMGWYRQAPGKERELVAAISRSGASTYYADSVKGRFTISRDNAKNTVYLQMNSLKPEDTAVYYCARGYQGRLKYEYWGQGTQVTVSS” here?
A: low polyreactivity

Q: For “QVQLVESGGGLVQAGGSLRLSCAASGFTFRRYTMGWYRQARGKERELVAGITTSGGTYYADSVKGRFTISRDNAKNTVYLQMNSLKPEDTAVYYCAARIYYLYGMDYWGQGTQVTVSS”, which “polyreactivity (PSR sort gate)” value is on record?
A: low polyreactivity

Q: With “QVQLVESGGGLVQAGGSLRLSCAASGYTYGYNAMGSYRQAPGKERELVAAITKNGGSTYYADSVKGRFTISRDNAKNTVYLQMNSLKPEDTAVYYCAARIYYSRTFGYYYWGQGTQVTVSS” as the sequence, how does the “polyreactivity (PSR sort gate)” value read?
A: high polyreactivity

Q: For “QVQLVESGGGLVQAGGSLRLSCAASGSISPQNVMGWYRQAPGKERELVAAITGGGSTNYADSVKGRFTISRDNAKNTVYLQMNSLKPEDTAVYYCNADYFQDRLDYWGHGTQVTVSS”, which “polyreactivity (PSR sort gate)” value is on record?
A: low polyreactivity

Q: Which “polyreactivity (PSR sort gate)” value does the source give for “QVQLVESGGGLVQAGGSLRLSCAASGGICRYYAMGWYRPAPGKERELVAAISRGGNTKYADSVKGRFTISRDNAKNTVYLQMNSLKPEDTAVYYCNAYTYNRYYWGQGTQVTVSS” here?
A: high polyreactivity

Q: Which “polyreactivity (PSR sort gate)” value does the source give for “QVQLVESGGGLVQAGGSLRLSCAASGRIFGPYAMGWYRQAPGKERELVAAITWSSGITYYADSVKGRFTISRDNAKNTVYLQMNSLKPEDTAVYYCAADSRLPYYRIMEYWGQGTQVTVSS” here?
A: low polyreactivity

Q: For “QVQLVESGGGLVQAGGSLRLSCAASGRIFGQNAMGWYRQSPGKERELVAVITSRGTRTYYADSVKGRFTISRDNAKNTVYLQMNSLNQEDTAVYYCAADVYSDNYKTWPYDYWGQGTQVTVSS”, which “polyreactivity (PSR sort gate)” value is on record?
A: low polyreactivity

Q: For “QVQLVESGGGLDLAGGSLRLSCAASGRTCGYNAMGWYRQAPGKERELVATISWGGGSTYYADSVKGRFTISRDNAKNSVYLQMNSLKPEDTAVYYCNKVHYGRRHSYSGAIYGEDYWGQGTQVTVSS”, which “polyreactivity (PSR sort gate)” value is on record?
A: high polyreactivity

Q: With “QVQLVESGGGLVQAGGSLRLSSAASGSTFRWYAMGWSRQEPGKEREFVAAITWSGGRTYYADSVKGRFTISRDNAKNTVFLQLNSLKPEDTAVYYCNAYDYGYSFNYWGQGTQVTLSS” as the sequence, how does the “polyreactivity (PSR sort gate)” value read?
A: high polyreactivity

Q: For “QVQLVESGGGLVQAGGSLRLSCAASGSTFIYYAMGWYRQAPGKEREFVAAISYRGGSTYYADSVKGRFTISRDNAKYTVYLQMNSLKPEDTAVYYCAASYRSWWETYLRGDYWGQGTQVTVSS”, which “polyreactivity (PSR sort gate)” value is on record?
A: high polyreactivity

Q: With “QVQLVESGGGLVQAGGSLRLICAASGRTFYSYAMGWYRQAPGKERELVAAISSGGTTYYADSVKGRFTISRDNAKNTDYLQMNSLKPEDTAVYYCATSRAWRYRSYYWGQGTQVTVSS” as the sequence, how does the “polyreactivity (PSR sort gate)” value read?
A: high polyreactivity

Q: With “QVQLVESGGGLVQAGGSLRLSCAASGSIFHWYVMGWYRQAPGKERELVASISWSSGSTYADSVKGRFTISRDNGKNTVYLQMNSLKPEDTAVYFCNAKTYYPPFGYWGQGTQVTVSS” as the sequence, how does the “polyreactivity (PSR sort gate)” value read?
A: low polyreactivity

Q: For “QVQLVESGGGLVQAGGSLRLSCAASGRTFLRYAMGWYRQAPGKERELVAAISGSGGSTYYADSVKGRFTISRDNAKNTVYLQMNSLKPEDTAVYYCATRFWVSFKAREYWGQGTQVTVSS”, which “polyreactivity (PSR sort gate)” value is on record?
A: high polyreactivity

Q: Which “polyreactivity (PSR sort gate)” value does the source give for “QVQLVESGGGLVQAGGSLRLSCAASGSILRYNAMGWYSQARAKEREWVASISRGGGTNYAYSVKGRFTISRDNAKNTVYLQINSLKQEDTAVYYCAALTLRVDYDSQWYSLVDYWGQGTEVTVSS” here?
A: low polyreactivity

Q: For “QVQLVESGGGLVQAGGSLRLSCAASGSILSTYAKGWYRQAPGKERELVASISSNAGSTYYADSVKGRFTISRDNAKNTVYLQMNSLKPEDTAVYYCNKVYGGGTYDYWGQGTQVTVSS”, which “polyreactivity (PSR sort gate)” value is on record?
A: low polyreactivity

Q: With “QVQLVESGGGLVQAGGSLRLSCAASGSTFAVYTMGWYRQAPGKERELVAAISSSGGSTYLRRSVKGRFTISRDNAKNTVYLQMNSLKPEDTAVYYCAAQWYAGHWHVPYEYWGQGTQVTVSS” as the sequence, how does the “polyreactivity (PSR sort gate)” value read?
A: high polyreactivity

Q: For “QVQHVESGGGLVQAGGSLRLSSAASGLTFYHYTMGWYRQAPGKERELVAAITKNGGSTYYADSVKGRFTISRDNAKNTVYLQMNSLKPEDTAVYYCNVGPRRVDRSRAASSDYDYWGQGTQVTVSS”, which “polyreactivity (PSR sort gate)” value is on record?
A: high polyreactivity

Q: Which “polyreactivity (PSR sort gate)” value does the source give for “QVQLVESGGGLVQAGGSLRLSCAASGRIFSVYAMGWYRQAPGKEREFVASISWRGGRTYYADSVKGRFTISRDNAKNTFYLQMNSLKPEDTAVYYCAAVSYPAVYGFDYWGQGTQVTVSS” here?
A: high polyreactivity

Q: Which “polyreactivity (PSR sort gate)” value does the source give for “QVQLVESGGGLVQAGGSLRLSCAASGRTLYRYAMGWYRQAPGKERELVAAIRSGGRTNYSDSVKGRFTISRDNAKNTVYLQMNSLKPEDTAVYYCAARTLRYPSTYDYWGQGTQVTVSS” here?
A: high polyreactivity

Q: Which “polyreactivity (PSR sort gate)” value does the source give for “QVQLVESGGGLVQAGGSLRLSCAASGGTFAWYAMGWYRQAPGKERELVAAITSDGITKYADSVKGRFTISRDNAKNTVYLQMNSLKPEDTAVYYCAKDDGPSDWIGRWFDYWGQGTQVTVSS” here?
A: low polyreactivity

Q: Which “polyreactivity (PSR sort gate)” value does the source give for “QVQLVESGGGLVQAGGSLRLSCAASGSTFYTNAMGWYRQAPGKERELVAAISASVGSTYYADSVKGRFTISRDNAKNTVYLQMNSLKPEDTAVYNCAADVWASRRYDYWGQGTQVTLSS” here?
A: low polyreactivity

Q: For “QVQLVESGGGLVQAGGSLRLSCAASGRTFFPYAMGWYRQEPGKERELVADIRRGGSTYYADSVKGRFTISRDNAKNNVYLQMYSLKPEDTAVYYCNVDFWWNRLYELDYWGQGTQVTVSS”, which “polyreactivity (PSR sort gate)” value is on record?
A: high polyreactivity

Q: Which “polyreactivity (PSR sort gate)” value does the source give for “QVQLVESGGGLVQAGGSIRLICAASGRNYAVYAMGWYRQAPGKERELVAAITYGGGRTYYADSVKGRFTISRDNEKNTVYLKLNSMNPEDTAVYFCAADYFGTDYDYWGQGTHVTVSS” here?
A: low polyreactivity

Q: With “QVQLVESGGGLVQAGGSLRLSCAASGYIFDDYAMGWYRQAPGKERELVAAISRGGSTYYADSVKGRFTISRDNSKNTVYLQMNSLKPEDTEVYYCAAVYRVRRITYVYWGQGTQVTVSS” as the sequence, how does the “polyreactivity (PSR sort gate)” value read?
A: high polyreactivity

Q: Which “polyreactivity (PSR sort gate)” value does the source give for “QVQLVESGGGLVQAGGSLRLSCAASGRTYPYAMGLYRQAPGKEREFVAAITSSGGSTYYADSVKGRFTISRDNAKNTVYLQMNSLKPEDTAVYYCAAEYYFLEYDYWGQGTQVTVSS” here?
A: low polyreactivity

Q: With “QVQLVESGGGLVQAGGSLRLSCAASGRTFSGYAMGWYRQAPGKERELVAAIDRGDGTNYADSVKGRYTISRDNAKNTVYLQMNSQIPEDTAVYYCAGDYSDGSTSLTYTGFVYWGQGTQVTVSS” as the sequence, how does the “polyreactivity (PSR sort gate)” value read?
A: low polyreactivity

Q: With “QVQHVESGAGLVQAGGSLRLSCAASGLILVYYAMGWYRQAPGKEREFVAAITPGGSTKYADSVKGRFTISRDNAKNTVYLQMNSLKPEDTAVYYCNALSGPYWYSVYQYHQDDYWGQGTQVTVSS” as the sequence, how does the “polyreactivity (PSR sort gate)” value read?
A: low polyreactivity

Q: Which “polyreactivity (PSR sort gate)” value does the source give for “QVQLVESGGGLVQAGGSLLLSCAASGYTLEYNAMGWNRQAPGKEREFVARIRWSGSSTYYADSVKGRCTISRDNAKNTVYLQMNSLKPEDTAVYYCNADDGYYVGLSSAIYDYWGQGTQVTVSS” here?
A: high polyreactivity

Q: For “QVQLVESGGGLVQAGGSLRLSCAASGRIFYYSAMGWSRQAPGIERELVAAITRRGGSTYYADSVKGRVTISRDNAKNTVFLQMNSLKPEDTEVYYSAKPDRTCWLDGDYWGQGSQVTVSS”, which “polyreactivity (PSR sort gate)” value is on record?
A: low polyreactivity

Q: Which “polyreactivity (PSR sort gate)” value does the source give for “QVQVVESGGGLVQAGGSLRLSCAASGRIFYVYAMGWYRQAPGKERELVAAITISGGSTYYADSVKGRFTISRDNAKNTVYLQMNSLKPEDTAVYYCATDRSSHWYDYWGQGTQVTVSS” here?
A: low polyreactivity

Q: For “QVHLVESGGGLVQAGGSLRLSCAASGSIFFGYAKGWYRQAPGKERELVAGMDTGGSTDYADSVTGRFTISRDNAKNTVYLQMNSLKPEDTAVYYWATYSYGAVTVDYWGQGTQVTVSS”, which “polyreactivity (PSR sort gate)” value is on record?
A: low polyreactivity

Q: Which “polyreactivity (PSR sort gate)” value does the source give for “QVQLVESGGGLVQAGGSLRLSCAASGFTFVYYTMGWYRPAPWKERELVAAITWRGSTYYADSVKGRFTISRDNAKNTVYLQMNSLKPEDTAVYYCAARYRVLLRHREYDYWGQGTQVTVSS” here?
A: high polyreactivity

Q: With “QVQLVESGGGLVQAGGSLRLSCAASGSTFVANTMGWYRQAPGKERELGAAITSDGGSTSYADSVKGRFSISRDNAKNTVYLQMNSLKPEDTAVYHCAAEYGGSSAKYGYWGQGTQVTVSS” as the sequence, how does the “polyreactivity (PSR sort gate)” value read?
A: low polyreactivity

Q: For “QVQLVESGGGLVQAGGSLRLSCAASGSTFSLYDMGWYRQAPGKERELVAAIRWSGDSTYYADSVKGRFTISRDNAKNTVYLQMNSLKPEDTAVYYCAKDQSSPWDIQFLVYGGYEYWGQGTQVTVSS”, which “polyreactivity (PSR sort gate)” value is on record?
A: low polyreactivity

Q: Which “polyreactivity (PSR sort gate)” value does the source give for “QVQLVESGGGLVQAGGSLSLSCAASVRIFVYNVMGWYRQAPGKERELVAAISWGTGSTYADSVKGRFTISRDNAKNTVYLQMNSLKPEDTAVYYCAAAADYYYDHDYWGQGTQVTVSS” here?
A: low polyreactivity

Q: With “QVQLVESGGGLVQAGGSLRLSCAASGFTFGYYAMGWYRQAPGKERELVATISYGGGSTYYADSVKGRFTISRDNAKNTVYLQMNSLKPEDSAVYYCAASYLVQAPVSGYVYRMYYWGQGTQVTVSS” as the sequence, how does the “polyreactivity (PSR sort gate)” value read?
A: high polyreactivity
